What was measured:
[1] = cited from earlier work
[2] = Biodistribution in AR42J tumor-bearing mice; format: in vivo; conditions: mouse, in vivo
[3] = test system: AR42J tumor bearing athymic nude mice; assay: Biodistribution in AR42J tumor-bearing mice; format: in vivo
[4] = test system: AR42J rat pancreatic cancer cells; assay: Internalization studies of 68Ga-labeled conjugates in AR42J cells; format: cell-based; conditions: 37 °C, 10-120 min, ~0.7 nM; reference 68Ga-DOTATOC; Fig. 2
[5] = cited from earlier work; remark: listed apart in the source

O=C([O-])CN1CCN(CC(=O)[O-])CCN(CC(=O)O)CCN(CC(=O)[O-])CC1.[Ga+3] [DOTA-Ga(III)]
log K (thermodynamic stability of the Ga(III) complex) [1]: 21.3

O=C([O-])CN1CCN(CC(=O)[O-])CCN(CC(=O)[O-])CC1.[Ga+3] [NOTA-Ga(III)]
log K (thermodynamic stability of the Ga(III) complex) [1]: 31.0

C[C@@H](O)[C@@H]1NC(=O)[C@H](CCCCN)NC(=O)[C@@H](Cc2c[nH]c3ccccc23)NC(=O)[C@H](Cc2ccc(O)cc2)NC(=O)[C@@H](NC(=O)[C@@H](Cc2ccccc2)NC(=O)CCC(C(=O)O)N2CCN(CC(=O)O)CCN(CC(=O)O)CC2)CSSC[C@@H](C(=O)N[C@H](CO)[C@@H](C)O)NC1=O (stereo partly drawn) [^68Ga-1, metal not drawn]
tissue uptake at 0.5 h ([2]; iv, kidney uptake): 22.8 ± 2.22 %ID/g | tissue uptake at 2 h ([2]; iv, kidney uptake): 9.79 ± 1.9 %ID/g | tissue uptake at 0.5 h ([2]; iv, liver uptake): 0.81 ± 0.09 %ID/g | tissue uptake at 1 h ([2]; tumor uptake): 22.3 ± 3.22 %ID/g | tissue uptake at 2 h ([2]; tumor uptake): 12.8 ± 4.65 %ID/g | tumor retention rate ([3]; mouse, in vivo): 55% | tumor/kidney ratio ([3]; mouse, in vivo): significantly higher | tumor/liver ratio ([3]; mouse, in vivo): significantly higher

C[C@@H](O)[C@@H]1NC(=O)[C@H](CCCCN)NC(=O)[C@@H](Cc2c[nH]c3ccccc23)NC(=O)[C@H](Cc2ccc(O)cc2)NC(=O)[C@@H](NC(=O)[C@@H](Cc2ccccc2)NC(=O)CCC(C(=O)O)N2CCN(CC(=O)O)CCN(C(CCC(=O)O)C(=O)O)CC2)CSSC[C@@H](C(=O)N[C@H](CO)[C@@H](C)O)NC1=O (stereo partly drawn) [^68Ga-2, metal not drawn]
Internalization in AR42J cells (time course) [4]: significantly decreased | tissue uptake at 0.5 h ([2]; iv, kidney uptake): 18.2 ± 1.84 %ID/g | tissue uptake at 2 h ([2]; iv, kidney uptake): 8.22 ± 2.29 %ID/g | tissue uptake at 0.5 h ([2]; iv, liver uptake): 1.38 ± 0.11 %ID/g | tissue uptake at 1 h ([2]; tumor uptake): 7.87 ± 0.41 %ID/g | tissue uptake at 2 h ([2]; tumor uptake): 1.78 ± 0.15 %ID/g | tumor retention rate ([3]; mouse, in vivo): 24%

C[C@@H](O)[C@@H]1NC(=O)[C@H](CCCCN)NC(=O)[C@@H](Cc2c[nH]c3ccccc23)NC(=O)[C@H](Cc2ccc(O)cc2)NC(=O)[C@@H](NC(=O)[C@@H](Cc2ccccc2)NC(=O)CCC(C(=O)O)N2CCN(C(CCC(=O)O)C(=O)O)CCN(C(CCC(=O)O)C(=O)O)CC2)CSSC[C@@H](C(=O)N[C@H](CO)[C@@H](C)O)NC1=O (stereo partly drawn) [^68Ga-3, metal not drawn]
Internalization in AR42J cells (time course) [4]: negligible | tissue uptake at 1 h ([2]; 5 µCi, tumor uptake, 1 h p.i., AR42J xenograft, n=4): 2.95 ± 0.62 %ID/g | tissue uptake at 2 h ([2]; 5 µCi, tumor uptake, 2 h p.i., AR42J xenograft, n=4): 0.83 ± 0.1 %ID/g | tissue uptake at 0.5 h ([2]; iv, 5 µCi, kidney uptake, 30 min p.i., n=4): 13.8 ± 2.22 %ID/g | tissue uptake at 2 h ([2]; iv, 5 µCi, kidney uptake, 2 h p.i., n=4): 5.24 ± 1.03 %ID/g | tissue uptake at 0.5 h ([2]; iv, 5 µCi, liver uptake, 30 min p.i., n=4): 0.51 ± 0.05 %ID/g | tumor/stomach ratio ([3]; 1 h p.i., vs 68Ga-DOTATOC, 68Ga-NO2ATOC and 68Ga-2 (P<0.01), Fig. 5): significantly higher | tumor retention rate ([3]; 2 h p.i.): 19% | retention of the initial kidney uptake ([3]; 2 h p.i. relative to 30 min p.i.): less than 52%

C[C@@H](O)[C@@H]1NC(=O)[C@H](CCCCN)NC(=O)[C@@H](Cc2c[nH]c3ccccc23)NC(=O)[C@H](Cc2ccc(O)cc2)NC(=O)[C@@H](NC(=O)[C@@H](Cc2ccccc2)NC(=O)CN2CCN(CC(=O)O)CCN(CC(=O)O)CCN(CC(=O)O)CC2)CSSC[C@@H](C(=O)N[C@H](CO)[C@@H](C)O)NC1=O [^68Ga-DOTATOC, metal not drawn, reference compound]
tissue uptake at 0.5 h ([2]; iv, kidney uptake): 11.3 ± 2.07 %ID/g | tissue uptake at 2 h ([2]; iv, kidney uptake): 7.33 ± 1.28 %ID/g | tissue uptake at 0.5 h ([2]; iv, liver uptake): 0.74 ± 0.18 %ID/g | tissue uptake at 2 h ([2]; iv, liver uptake): 4.37 ± 0.2 %ID/g | tissue uptake at 1 h ([2]; tumor uptake): 13.5 ± 6.28 %ID/g

SST-14: physiological form of somatostatin, natural SSTR ligand
biological half-life [5]: 2–4 min

SST-28: physiological form of somatostatin, natural SSTR ligand
biological half-life [5]: 2–4 min
